Assay results: the nanobody polyreactivity screen of Harvey et al. (2022)

Assay: yeast display, Sf9 membrane polyspecificity reagent, FACS + sequencing; frameworks hold sequencing errors
Procedure, shortened: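 A nanobody's polyreactivity label depends on the gate it was sorted from. Yeast display cells were stained with 10% biotinylated, detergent-solubilized Sf9 membrane reagent for 1 hour at 4 °C, enriched on streptavidin microbeads and sorted by FACS. The low and high (top ~1%) gates were set on anti-HA fluorescence for expression and streptavidin fluorescence for reagent binding.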

| Sequence | polyreactivity (PSR sort gate) |
| --- | --- |
| QVQLVESGGGLVQAGGSLRLSCAPSGSTFYIYAMGWYRQAPGKERELVAAISTTDGTTYYADSVKGRFTISRDNAKNTVYLQMNSLKPEDTAVYYCAAEWFGSVQPAYDYWGQGTQVTVSS | high polyreactivity |
| QVQLVESGGGLVQAGGSLRLSCAASGFIFYRYAMGWYRLAPGKERELVAAISSSGGSTYYADSVKGRFTISRDYAKYSVYLQMNSLKPEDTAVYYCAVDYWGQGTQVTVSS | high polyreactivity |
| QVQLVESGGGLVQAGGSLRLSCAASGFIFSNYAMGWYRQAPGKERELVAAISRSGGSTYYADSVKGRFTISRDNAKNTVYLQMNSLKPEDTAVYYCAARHAPILGDHGMKYWGQGTQVTVSS | high polyreactivity |
| QVQLVESGGGLVQAGGSLRLSCAASGSIFVSYAMGWYRQAPGKERELVAAISISDGSTYADSVKGRFTISRDNAKNTVYLQMNSLKPEDTAVYYCATYLVYDYAYVAYDYWGQGTQVTVSS | low polyreactivity |
| QVQLVESGGGLVQAGGSLRLSCAASGISYTSYAMGWYRQAPGKERELVAAISSSGGSTYYADSVKGRFTISRDNAKNTVYLQMNSLKPEDTAVYYCIARPRSRSPRVEYDYWGQGTQVTVSS | high polyreactivity |
| QVQLVESGGGLVQAGGSLRLSCAASGSIFVVNAMGWYRQAPGKERELGASISQSGDNTYYADSVKGRFTISRDNAKNTVYLQMISLKTEDTAVYYCNAYGGYPEVDYWGQGTQVTVSS | low polyreactivity |
| QVQLVESGGGLVQAGGSLRLSCAASGSIFYYYAMGWYRLAAGKERELVAAINSGGSTYADSVKGRFSISRDNAKNTVYLQMNSLIPEDSAVYYSATDIHSVDNNRDKHDYDYWGQGTQVTVSS | low polyreactivity |
| QVQLVESGGGLVQAGGSLRLSCAATGSTFRNNAMGWSRQAPGKERELVAAISRGGGSTYYADSVKGRFTISRDNAKNTVYLQMNSLKPEVTAVYYCARRPTGIYDYWGQGTQVTLSS | high polyreactivity |
| QFQLVESGGGLVQAGVSLRLSCAASGSIIKYYAMGWYRQAPGKERELVATINWNGGSTYYADSVKGRFTISRDNAKNTVYLQMNSLKPEDTAVYYCAAGYRGSYYHSHYEYLGQGTQVTVSS | high polyreactivity |
| QVQLVESGGGLVQAGGSLRLSCAASGSTIRYYAMGWYRQAPGKERELVAANTKSGGSTYYADSVKGRFTISRDNAKNTVYLQMNSPKPEDTAVYSCAAVRRWYYPALSEHDYWGQGTQVTVSS | low polyreactivity |
| QVQLVESGGGLVQAGGSLRLSCAASGSIFHPYAMGWYRQAPGKEREFVAAITFRGSTYFADSVKGRFTISRDNAKITVYLQMNSLKPEDTAVYYCAARYHIFRRGSRNYDYWGQGTQVTVSS | high polyreactivity |
| QVQLVDSGGGLVQAGGSLRLSCAASGFTIHYKAMGWYRQAPGKERELVATISKSAGITSYADSVKGRFTISRDNAKNTVYLQMNSLNPEDTAVYYCAADKSYRRVYYWGQGTQVTVSS | low polyreactivity |
| QVQLVESGGGLDQAGGSLRLSCAASGSTFANNAMGWYREAPGKERELVAAISSGGSTNYADSVKGRFTISRDNAKNTGYLQMNSLKPEDTAVYYCNADAYDEIKYGYWGQGTQVTVSS | low polyreactivity |
| QVQLVESGGGLVQAGGSLRLSCAASGSIFYYYAMGWYRQAPGKERELVASITSGGRTYYADSVKGRFTISRDNAKNTVYFQMNSLKPEDTAVYYCAAVYGGLTLTRNYNWGQGTQVTVSS | high polyreactivity |
| QVQLVESGGGLVQAGGSLRLSCAASGTFGYYTMGWYRQAPGHERELVAAITRSGGSTYDADSVKGRFTISRDNAKNTVYLQMNSLKPEDTAVYYCATELHAWSSWNRYRAYYYWGQGTQVTVSS | high polyreactivity |
| QVQLVESGGGLVQAGGSLRLSCDASGSIFSKYVMGCYRQAPGKERELVASITSGGSTNYADSVKGRFTISRDNAKNTVYLQMTSQKPEDTAVYFCAARAINTWYRSGVDDWCQGTQVTVSS | low polyreactivity |
| QVQLVESGGGLVQAGGSLRLSCAASGRTLHAYTMGWYRQAPGKERELVAAITRGGGNTYYADSVKGRFTISRDNAKNTVYLQMNSLKPEDTAVYYCAKDYGYQGHTRTLYWAYLEYDYWGQGTQVTVSS | low polyreactivity |
| QVQLVESGGGLVQAGGSLRLSCAASGRIFSYYAMGWYRQAPGKERELVATINWRADTYYADSVKGRFTISRDNAKKTVYLQMNSLKPEDSAVYYCAKRPRPTDKYDYWGQGTQVTVSS | high polyreactivity |
| QVQLVESGGGLVQAGGSLRLSCAASGSIFKIYAMGWSRQAPGKERELVAAISRSVGSTYADSVKGRFTISRDNAKNTVYLQMNSLKPEDTAVYYCNARYKSRLYPRYDYWGQGTQVTVSS | high polyreactivity |
| QVQLVESGGSLVQAGGSLRLSCDASVLTFPVYAMGWYRQAPGKEREFVASISGRGASTYYADSVKGRFTISRDNAKNTVYLQMNSLIPEDTAVYYCNADVWLLSYFPEYDYWGQGNQVTVSS | low polyreactivity |
| QVQLVESGGGLVQAGGSLRLSCAASGITFNVLAMGWYRQAPGKEREFVAAISTRDGTTYADSLKGRFTISRDNAKNTVYLQMNSLKPEDTAVYYCAAAYYYDGQQGDFDYWGQGTQVTVSS | low polyreactivity |
| QVQHVESGGGLVQAGASLRLSCAASRRTFYRYAMGWSRQAPGKERELVAAISSGGSTNYADCVKGRFTISRDNAKNTVYLHMNRLKPEDTAVYYCAAETRLHRQDYDYWGQGTQVTVSS | low polyreactivity |
| QVQLVESGGGLVQAGGRLRLGCAASGSTYLYNAMGLYRQAPGKERELVAAISWTGGSTYYADSVKARYTISRDNAKNTVYLQMNSLKPEDTAVYYCNSLSVPDYDYWGHGTQVTVSS | high polyreactivity |
| QVQLVESGGGIVQAGGSLRLSCAASGYTFTGYSMGWYRQAPGKEREFVAGITWRTGRTYYADSVKGRFTISRDNAKNNVYLQMNSLKREDTAVYFCYKDHQRRYYWSYDYWGQGTQVTVSS | low polyreactivity |
| QVQLVESGGGLVQAGGSLRLSCAASGYTIRKNAMGWYRQAPGKERELVAAMSRSGGSTYYADSVKGRFTISRDNAKNIVYLQMNSLKPEDTAVYYCNTRYPYYWPMYGYWGQGTQVTVSS | high polyreactivity |
| PVQLVESGGGLVQAGGSLRLSCAASGRILPSNAMGWYRQAPGKERELVAGITSGGSTDYADSVKGRFTISRDNAKNTVYLQMNSLNPVDTAVYYCAARYFHHYWGDLEVEFEYWGQGTQVTVSS | low polyreactivity |
| QDQLVESGGGLVQAGGSLRLSCASSGSIFSYNAMGWYRQAPGKEMELVAAISRGGSTYYADSVKGRFTISRDNAKNTVYLQMNSLKPDDTAVYYCAAYVYQLSYPAFEEGYWGQGTQVTVSS | low polyreactivity |
| QVQLVESGGGLVQAGGSLRLSCAASGRTFSGYAMGWYRQAPGKARELVAGITWNGGRTYYADSVKGRFTISRDNAKNTVYLQMNSLKPEDTAVYYCNKLGAVYPKYGYWGQGTQVTVSS | high polyreactivity |
| QVQLEDSGGGLVQAGGSLRLSCAASGFTFYSNAMGWYRQAPGKERELVAAITRGGGSTYYADSVKGRFTISRDNAKNTVYLQMNSLKPEDTAVYYCAAEMFAPYRSTYDYWGQGTQVTVSS | low polyreactivity |
| QVQLVESGGGLVQAGGSLRLSCAASGYTFAGNAMGWYRQAPGKERELVAAISRSGGRTYYADSVKGRFTISRDNAKNTVYLQMNSLKPEDTAVYYCAAYGYKYDYWGQGTQVTVSS | high polyreactivity |
